In paper PMC7542444:

Target: LEDGF/ΔIBD-B56γ chimera (LEDGF residues 1-324 and B56γ residues 11-380), wild type, O75475;Q13362
Experiment: pull-down
Details: parent: est. 100; read off a plot

Row | Substance | percent of parent (% of wild type)
1 | His6-STLV-1 IN (6xHis-tagged STLV-1 MarB43 IN), wild type E218A | 5
2 | His6-STLV-1 IN (6xHis-tagged STLV-1 MarB43 IN), wild type H209A | 23
3 | His6-STLV-1 IN (6xHis-tagged STLV-1 MarB43 IN), wild type H209A; P211A | 21
4 | His6-STLV-1 IN (6xHis-tagged STLV-1 MarB43 IN), wild type I216A | 1
5 | His6-STLV-1 IN (6xHis-tagged STLV-1 MarB43 IN), wild type P214A | 57
6 | His6-STLV-1 IN (6xHis-tagged STLV-1 MarB43 IN), wild type P215A; P217A | 15

Target: His6-STLV-1 IN (6xHis-tagged STLV-1 MarB43 IN), wild type
Experiment: pull-down
Details: parent: est. 100; read off a plot

Row | Substance | percent of parent (% of wild type)
7 | LEDGF/ΔIBD-B56γ chimera (LEDGF residues 1-324 and B56γ residues 11-380), wild type (from UniProt O75475;Q13362) E78A; T81A; H82A | 150
8 | LEDGF/ΔIBD-B56γ chimera (LEDGF residues 1-324 and B56γ residues 11-380), wild type (from UniProt O75475;Q13362) R84A | 140
9 | LEDGF/ΔIBD-B56γ chimera (LEDGF residues 1-324 and B56γ residues 11-380), wild type (from UniProt O75475;Q13362) R143A | 46
